Patent US20250152742A1, “COMPOSITIONS AND METHODS FOR NEUROLOGICAL DISEASES” (Trames Bio, Inc., priority 2022, published 2025)

Test system: engineered chimeric receptor SEQ ID NO: 33 and its mutants (human α7-nAChR ligand binding domain / human GlyRα1 ion pore domain) in Lenti-X 293T cells
Experiment: YFP fluorescence quenching anion reporter plate reader assay (percent quench, EC50)
Format: cell-based
Details: for YFP fluorescence quenching using CNL001 (percent quench): receptor named in row; for YFP fluorescence quenching using Varenicline, 3 nM var: ligand Varenicline 3 nM; for YFP fluorescence quenching using Varenicline, 30 nM var: ligand Varenicline 30 nM; for YFP fluorescence quenching using Varenicline, 300 nM var: ligand Varenicline 300 nM; for YFP fluorescence quenching using Varenicline, 500 nM var: ligand Varenicline 500 nM; for YFP fluorescence quenching using Varenicline, 1 uM var: ligand Varenicline 1 uM
Method in brief: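 Percent quench compares mean YFP signal over the final 10 s with the 15 s baseline before ligand, added in iodide-containing extracellular solution (pH 7.2). Cells were LX293T carrying a YFP anion reporter, transiently transfected with the channel construct; plates were preincubated 30 min at 37 °C.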

B1: CODA71: parental chimeric LGIC: human α7-nAChR ligand binding domain with GlyRα1 Cys-loop fused to human GlyRα1 ion pore domain (protein)
chain: MRCSPGGVWLALAASLLHVSLQGEFQRKLYKELVKNYNPLERPVANDSQPLTVYFSLSLLQIMDVDEKNQVLTTNIWLQMSWTDHYLQWNVSEYPGVKTVRFPDGQIWKPDILLYNSADERFDATFHTNVLVNSSGHCQYLPPGIFKSSCPMDLKNFPMDVQTCKLKFGSWSYGGWSLDLQMQEADISGYIPNGEWDLVGIPGKRSERFYECCKEPYPDVTFTVTMRRRMGYYLIQMYIPSLLIVILSWISFWINMDAAPARVGLGITTVLTMTTQSSGSRASLPKVSYVKAIDIWMAVCLLFVFSALLEYAAVNFVSRQHKELLRFRRKRRHHKSPMLNLFQEDEAGEGRFNFSAYGMGPACLQAKDGISVKGANNSNTTNPPPAPSKSPEEMRKLFIQRAKKIDKISRIGFPMAFLIFNMFYWIIYKIVRREDVHNQ
modifications: synthetic sequence of chimeric LGIC
- YFP fluorescence quenching using CNL001 (percent quench) (1 nM CNL001, first column so headed): 3.727%
- YFP fluorescence quenching using CNL001 (percent quench) (1 nM CNL001, second column so headed): 20.231%
- YFP fluorescence quenching using TC-5619/Bradanicline (percent quench) (1 nM brd (TC-5619/Bradanicline)): 9.41%
- YFP fluorescence quenching using TC-5619/Bradanicline (percent quench) (3 nM brd (TC-5619/Bradanicline)): 44.38%
- YFP fluorescence quenching using CNL001 (percent quench) (10 nM CNL001, first column so headed): 81.096%
- YFP fluorescence quenching using CNL001 (percent quench) (10 nM CNL001, second column so headed): 82.368%
- YFP fluorescence quenching using TC-5619/Bradanicline (percent quench) (10 nM brd (TC-5619/Bradanicline)): 76.61%
- YFP fluorescence quenching using TC-6683 (percent quench) (30 nM TC-6683): −14.43%
- YFP fluorescence quenching using TC-5619/Bradanicline (percent quench) (30 nM brd (TC-5619/Bradanicline)): 70.23%
- YFP fluorescence quenching using CNL001 (percent quench) (50 nM CNL001, first column so headed): 83.62%
- YFP fluorescence quenching using CNL001 (percent quench) (50 nM CNL001, second column so headed): 84.482%
- YFP fluorescence quenching using ABT-126 (percent quench) (50 nM abt (ABT-126)): −1.98%
- YFP fluorescence quenching using CNL001 (percent quench) (100 nM CNL001, first column so headed): 84.297%
- YFP fluorescence quenching using CNL001 (percent quench) (100 nM CNL001, second column so headed): 85.368%
- YFP fluorescence quenching (percent quench) (100 nM CNL002): 49.61%
- YFP fluorescence quenching using ABT-126 (percent quench) (100 nM abt (ABT-126)): 24.27%
- YFP fluorescence quenching using AZD-0328 (percent quench) (100 nM azd0328): 73.59%
- YFP fluorescence quenching using TC-5619/Bradanicline (percent quench) (100 nM brd (TC-5619/Bradanicline)): 78.62%
- YFP fluorescence quenching using TC-6683 (percent quench) (300 nM TC-6683): −13.08%
- YFP fluorescence quenching using ABT-126 (percent quench) (300 nM abt (ABT-126)): 56.8%
- YFP fluorescence quenching using AZD-0328 (percent quench) (300 nM azd0328): 78.09%
- YFP fluorescence quenching using TC-5619/Bradanicline (percent quench) (300 nM brd (TC-5619/Bradanicline)): 75.51%
- YFP fluorescence quenching using ABT-126 (percent quench) (500 nM abt (ABT-126)): 76.28%
- YFP fluorescence quenching using CNL001 (percent quench) (1 uM CNL001, first column so headed): 85.647%
- YFP fluorescence quenching using CNL001 (percent quench) (1 uM CNL001, second column so headed): 86.358%
- YFP fluorescence quenching (percent quench) (1 uM CNL002): 74.15%
- YFP fluorescence quenching using ABT-126 (percent quench) (1 uM abt (ABT-126)): 73.16%
- YFP fluorescence quenching using TC-6683 (percent quench) (3 uM TC-6683): −13.71%
- YFP fluorescence quenching using ABT-126 (percent quench) (3 uM abt (ABT-126)): 70.98%
- YFP fluorescence quenching using ABT-126 (percent quench) (10 uM abt (ABT-126)): 72.62%
- YFP fluorescence quenching (percent quench) (10 uM ach (acetylcholine)): 15.61%
- YFP fluorescence quenching (percent quench) (30 uM CNL002): 75.21%
- YFP fluorescence quenching using TC-6683 (percent quench) (30 uM TC-6683): −14.02%
- YFP fluorescence quenching using ABT-126 (percent quench) (30 uM abt (ABT-126)): 77.49%
- YFP fluorescence quenching (percent quench) (30 uM ach (acetylcholine)): 63.31%
- YFP fluorescence quenching using AZD-0328 (percent quench) (30 uM azd0328): 79.05%
- YFP fluorescence quenching using ABT-126 (percent quench) (50 uM abt (ABT-126)): 77.96%
- YFP fluorescence quenching (percent quench) (50 uM ach (acetylcholine)): 73.16%
- YFP fluorescence quenching using TC-6683 (percent quench) (100 uM TC-6683): −8.77%
- YFP fluorescence quenching using ABT-126 (percent quench) (100 uM abt (ABT-126)): 77.81%
- YFP fluorescence quenching (percent quench) (100 uM ach (acetylcholine)): 74.94%
- YFP fluorescence quenching (percent quench) (300 uM ach (acetylcholine)): 65.94%
- YFP fluorescence quenching (percent quench) (500 uM ach (acetylcholine)): 62.78%
- YFP fluorescence quenching (percent quench) (1 mM ach (acetylcholine)): 74.24%
- YFP fluorescence quenching (percent quench) (3 mM ach (acetylcholine)): 76.27%
- YFP fluorescence quenching (percent quench) (5 mM ach (acetylcholine)): 77.15%
- YFP fluorescence quenching (percent quench) (10 mM ach (acetylcholine)): 77.96%
- YFP fluorescence quenching using Facinicline, 30 nM fac (ligand Facinicline 30 nM): 53.42
- YFP fluorescence quenching using Facinicline, 100 nM fac (ligand Facinicline 100 nM): 83.6
- YFP fluorescence quenching using Facinicline, 300 nM fac (ligand Facinicline 300 nM): 77.44
- YFP fluorescence quenching using Facinicline, 30 uM fac (ligand Facinicline 30 uM): 79.62
- YFP fluorescence quenching using TC-6987, 1 uM tc6987 (ligand TC-6987 1 uM): 31.56
- YFP fluorescence quenching using TC-6987, 3 uM tc6987 (ligand TC-6987 3 uM): 31.82
- YFP fluorescence quenching using TC-6987, 5 uM tc6987 (ligand TC-6987 5 uM): 30.75
- YFP fluorescence quenching using TC-6987, 10 uM tc6987 (ligand TC-6987 10 uM): 56.68
- YFP fluorescence quenching using TC-6987, 30 uM tc6987 (ligand TC-6987 30 uM): 51.46
- YFP fluorescence quenching using TC-6987, 50 uM tc6987 (ligand TC-6987 50 uM): 61.26
- YFP fluorescence quenching using TC-6987, 100 uM tc6987 (ligand TC-6987 100 uM): 43.21
- YFP fluorescence quenching using TC-6987, 300 uM tc6987 (ligand TC-6987 300 uM): 7.79
- YFP fluorescence quenching using TC-6987, 500 uM tc6987 (ligand TC-6987 500 uM): 51.58
- YFP fluorescence quenching using Varenicline, 3 nM var (first column): −2.36
- YFP fluorescence quenching using Varenicline, 3 nM var (second column): −3.522
- YFP fluorescence quenching using Varenicline, 30 nM var (first column): −4.255
- YFP fluorescence quenching using Varenicline, 30 nM var (second column): −3.636
- YFP fluorescence quenching using Varenicline, 300 nM var (first column): 46.195
- YFP fluorescence quenching using Varenicline, 300 nM var (second column): 45.522
- YFP fluorescence quenching using Varenicline, 500 nM var (first column): 69.253
- YFP fluorescence quenching using Varenicline, 500 nM var (second column): 71.705
- YFP fluorescence quenching using Varenicline, 1 uM var (first column): 79.254
- YFP fluorescence quenching using Varenicline, 1 uM var (second column): 79.244
